Laboratory results reported in article PMC10711550, “Molecular basis for SOX2-dependent regulation of super-enhancer activity” (Nucleic Acids Research, 2023).
One block for each binder: values may come before it.

What was measured:
Conditions in all cases: both partners purified
[1] = molecular target: T1, full-length human SOX2 (recombinant, N-terminal His-tag, 327 amino acids) (human, UniProt P48431 1-317); assay: BLI; 0.2 mg/ml SOX2 immobilised on an AR2G chip, quenched with 1 M ethanolamine; p300 (0-400 nM), KIX (0-43 uM), fragments (3 uM KIX and BR, 0.8 uM KB) in PBS; global fit, 1:1 binding model; BLItz
T1 construct: human SOX2, full length, 317 amino acids; with the tag peptide 327 amino acids; Immobilised on an AR2G chip in BLI
T1 sequence (P48431 whole entry, the tested form may be a part): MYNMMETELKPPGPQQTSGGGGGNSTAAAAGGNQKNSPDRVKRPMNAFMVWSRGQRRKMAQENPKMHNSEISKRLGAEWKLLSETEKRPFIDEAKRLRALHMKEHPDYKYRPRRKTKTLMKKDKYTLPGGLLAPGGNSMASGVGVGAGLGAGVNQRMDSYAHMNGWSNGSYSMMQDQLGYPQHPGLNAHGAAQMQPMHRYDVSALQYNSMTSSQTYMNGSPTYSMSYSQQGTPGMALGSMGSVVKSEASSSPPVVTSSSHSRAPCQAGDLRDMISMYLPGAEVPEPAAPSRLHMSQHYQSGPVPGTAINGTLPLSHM

[2] = molecular target: T2, DNA-binding domain of SOX2 (aa 39-127) (human, UniProt P48431 39-127); assay: BLI; SOX2DBD or SOX2CTD with KIX or bromodomain; who was immobilised not given; global fit to a 1:1 binding model (BLItz Pro v.1.2.1.5)
T2 construct: also called SOX2DBD; DBDSOX2; source: E. coli BL21(DE3), purified from the supernatant (HisTrap HP, Superose 6 Increase)
T2 sequence (P48431 39-127): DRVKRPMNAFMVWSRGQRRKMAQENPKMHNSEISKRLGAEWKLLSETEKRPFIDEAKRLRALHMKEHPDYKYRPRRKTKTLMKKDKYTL

[3] = molecular target: T3, C-terminal domain of SOX2 (aa 150-317) (human, UniProt P48431 150-317); assay: as above
T3 construct: also called SOX2CTD; CTDSOX2; source: E. coli BL21(DE3), purified from the supernatant (HisTrap HP, Superose 6 Increase)
T3 sequence (P48431 150-317): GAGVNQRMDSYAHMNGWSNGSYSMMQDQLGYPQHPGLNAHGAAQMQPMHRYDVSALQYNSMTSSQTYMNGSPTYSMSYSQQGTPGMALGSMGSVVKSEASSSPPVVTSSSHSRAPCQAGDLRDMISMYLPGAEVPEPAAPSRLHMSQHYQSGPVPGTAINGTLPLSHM

full-length human SOX2 = molecular target: T4, full-length human SOX2 (human, UniProt P48431 1-317); assay: BLI; SOX2 (0.2 mg/ml) immobilised on an AR2G chip, quenched with 1 M ethanolamine; p300 fragments in PBS; global fit to a 1:1 binding model (BLItz Pro v.1.2.1.5)
T4 construct: human SOX2, UniProt P48431, 317 amino acids; with the N-terminal His-tag peptide the recombinant protein has 327 amino acids; cloned into the pVFT1S plasmid
T4 sequence (P48431 whole entry, the tested form may be a part): as the sequence (P48431 whole entry, the tested form may be a part) above

B1: p300 bromodomain (aa 1067-1139) (domain or fragment, human, UniProt Q09472 1067-1139, looked up)
chain: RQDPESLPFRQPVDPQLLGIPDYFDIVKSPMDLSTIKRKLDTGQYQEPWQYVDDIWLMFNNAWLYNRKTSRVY
notes: human p300, bromodomain, residues 1067-1139; also called p300BD; BD; source: E. coli BL21(DE3), purified from the supernatant (HisTrap HP, Superose 6 Increase)
fold higher KD than p300KIX [1]: 20.1 fold

B2: p300 bromodomain (aa 1067-1139) (domain or fragment, human, UniProt Q09472 1067-1139, looked up)
chain: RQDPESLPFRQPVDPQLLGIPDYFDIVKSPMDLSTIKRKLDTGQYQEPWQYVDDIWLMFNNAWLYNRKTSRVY
notes: human p300, UniProt Q09472, bromodomain, aa 1067-1139; also called BD; p300BD; source: E. coli BL21(DE3), purified from the supernatant (HisTrap HP, Superose 6 Increase)
koff [2]: 0.0265 s⁻¹
kon [2]: 172 M⁻¹ s⁻¹
koff [3]: 0.0951 s⁻¹
Kd (full-length human SOX2): 54 µM
koff (full-length human SOX2): 0.00606 s⁻¹
kon (full-length human SOX2): 112 M⁻¹ s⁻¹

koff [2]: 0.0469 s⁻¹
kon [2]: 5060 M⁻¹ s⁻¹
koff [3]: 0.0849 s⁻¹
kon [3]: 1720 M⁻¹ s⁻¹
B3: p300 KIX domain (aa 566-646) (domain or fragment)
chain: not shown
notes: human p300, UniProt Q09472, KIX domain, aa 566-646; also called KIXp300; source: E. coli BL21(DE3), purified from the supernatant (HisTrap HP, Superose 6 Increase)

fold lower KD than p300BD [1]: 834 fold
fold lower KD than p300KIX [1]: 41.4 fold
B4: p300 KIX-BD fragment (aa 566-1139) (domain or fragment)
chain: not shown
notes: human p300, KIX + bromodomain, residues 566-1139; also called p300KB; KB; source: E. coli BL21(DE3), purified from the supernatant (HisTrap HP, Superose 6 Increase)
